Data as given in EP4813394A2 (Albert-Ludwigs-Universität Freiburg, dated 2026).

Molecular target: T1, TRMT112 (KMT9beta) (Homo sapiens, UniProt Q9UI30 1-125)
T1 construct: TRMT112 is untagged when co-expressed with His-C21orf127 and His-tagged when expressed alone (His-TRMT112); also called His-TRMT112
T1 sequence: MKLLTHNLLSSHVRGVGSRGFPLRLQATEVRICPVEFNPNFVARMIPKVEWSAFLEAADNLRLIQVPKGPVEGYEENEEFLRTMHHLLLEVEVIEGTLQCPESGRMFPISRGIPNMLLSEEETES
Test: gel filtration chromatography (Superose 6 10/300 GL)

B1: C21orf127(N122A) (enzyme)
chain: MAGENFATPFHGHVGRGAFSDVYEPAEDTFLLLDALEAAAAELAGVEICLEVGSGSGVVSAFLASMIGPQALYMCTDINPEAAACTLETARCNKVHIQPVITDLVKGLLPRLTEKVDLLVFAPPYVVTPPQEVGSHGIEAAWAGGRNGREVMDRFFPLVPDLLSPRGLFYLVTIKENNPEEILKIMKTKGLQGTTALSRQAGQETLSVLKFTKS
notes: Co-expressed with TRMT112 as His-C21orf127(N122A)/TRMT112; also called KMT9alpha(N122A); His-C21orf127(N122A); not shown: N-terminal His tag from pDEST17 or pET-Duet1
B1: binds.
